Numbering of substitutions follows the chain as printed.
B1: 5502 IgG4_Pro (antibody, V domains shown)
VH: QVQLQQSGPGLVKPSQTLSLTCAISGDSVSSRSASWSWIRQSPGRGLEWLGRIYYRSKWYNDYAVSVKSRITINPDTSKNQFSLQLNSVTPEDTAVYYCARMDVPSFRYFDVWGQGTLVTVSS
VL: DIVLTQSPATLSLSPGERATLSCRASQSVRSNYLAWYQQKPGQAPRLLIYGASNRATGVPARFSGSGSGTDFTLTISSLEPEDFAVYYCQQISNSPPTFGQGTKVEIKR
notes: Human IgG4_Pro
B2: 5591 IgG4_Pro (antibody, V domains shown)
VH: B1 VH with I53T, K58H, N61Y, D62E, V65Q
VL: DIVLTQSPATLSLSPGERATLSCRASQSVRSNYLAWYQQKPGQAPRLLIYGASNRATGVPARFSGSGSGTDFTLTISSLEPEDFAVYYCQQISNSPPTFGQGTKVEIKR

Experiments:
[1] = target: T1, human NPRA on HEK293 cells, without added ligand (human, UniProt P16066 33-1061); assay: FACS, HEK NPRA cells without ligand
T1 construct: a signal peptide is not delimited; also called HEK NPRA cells; HEK hNPRA cells
T1 sequence: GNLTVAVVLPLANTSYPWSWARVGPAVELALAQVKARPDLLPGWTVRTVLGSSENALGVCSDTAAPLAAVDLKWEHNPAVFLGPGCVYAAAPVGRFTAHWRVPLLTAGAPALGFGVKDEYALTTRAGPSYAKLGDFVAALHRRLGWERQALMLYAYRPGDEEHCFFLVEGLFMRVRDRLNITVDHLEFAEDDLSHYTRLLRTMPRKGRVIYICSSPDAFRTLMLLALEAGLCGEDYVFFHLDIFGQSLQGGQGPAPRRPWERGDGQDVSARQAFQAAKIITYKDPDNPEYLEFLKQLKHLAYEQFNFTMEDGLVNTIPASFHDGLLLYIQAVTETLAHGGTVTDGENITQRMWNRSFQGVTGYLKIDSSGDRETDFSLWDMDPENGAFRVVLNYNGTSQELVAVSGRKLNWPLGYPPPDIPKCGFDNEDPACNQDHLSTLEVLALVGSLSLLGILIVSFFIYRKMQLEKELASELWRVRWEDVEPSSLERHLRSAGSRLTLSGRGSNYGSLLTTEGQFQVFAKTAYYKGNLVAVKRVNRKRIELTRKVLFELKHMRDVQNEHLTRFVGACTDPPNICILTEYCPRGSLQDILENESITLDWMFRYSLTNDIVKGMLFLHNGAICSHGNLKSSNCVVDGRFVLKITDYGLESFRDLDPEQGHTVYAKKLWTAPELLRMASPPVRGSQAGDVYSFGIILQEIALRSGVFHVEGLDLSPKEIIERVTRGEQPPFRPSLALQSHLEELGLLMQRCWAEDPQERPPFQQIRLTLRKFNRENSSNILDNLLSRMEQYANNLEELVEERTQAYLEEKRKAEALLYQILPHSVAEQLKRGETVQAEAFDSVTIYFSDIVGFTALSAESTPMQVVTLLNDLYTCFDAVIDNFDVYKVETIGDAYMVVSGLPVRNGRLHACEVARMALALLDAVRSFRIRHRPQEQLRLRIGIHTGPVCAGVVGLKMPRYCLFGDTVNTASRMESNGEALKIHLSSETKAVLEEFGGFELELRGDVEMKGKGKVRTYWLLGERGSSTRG

[2] = target: T2, human NPRB on HEK293 cells in the presence of CNP (human, UniProt P20594 23-1047; P23582 105-126); assay: FACS, HEK NPRB cells with 100 nM CNP
T2 construct: whole, on cells;mature; also called HEK NPRB cells + 100 nM CNP
T2 sequence (P20594 23-1047 limits assumed, chain 1 of 2): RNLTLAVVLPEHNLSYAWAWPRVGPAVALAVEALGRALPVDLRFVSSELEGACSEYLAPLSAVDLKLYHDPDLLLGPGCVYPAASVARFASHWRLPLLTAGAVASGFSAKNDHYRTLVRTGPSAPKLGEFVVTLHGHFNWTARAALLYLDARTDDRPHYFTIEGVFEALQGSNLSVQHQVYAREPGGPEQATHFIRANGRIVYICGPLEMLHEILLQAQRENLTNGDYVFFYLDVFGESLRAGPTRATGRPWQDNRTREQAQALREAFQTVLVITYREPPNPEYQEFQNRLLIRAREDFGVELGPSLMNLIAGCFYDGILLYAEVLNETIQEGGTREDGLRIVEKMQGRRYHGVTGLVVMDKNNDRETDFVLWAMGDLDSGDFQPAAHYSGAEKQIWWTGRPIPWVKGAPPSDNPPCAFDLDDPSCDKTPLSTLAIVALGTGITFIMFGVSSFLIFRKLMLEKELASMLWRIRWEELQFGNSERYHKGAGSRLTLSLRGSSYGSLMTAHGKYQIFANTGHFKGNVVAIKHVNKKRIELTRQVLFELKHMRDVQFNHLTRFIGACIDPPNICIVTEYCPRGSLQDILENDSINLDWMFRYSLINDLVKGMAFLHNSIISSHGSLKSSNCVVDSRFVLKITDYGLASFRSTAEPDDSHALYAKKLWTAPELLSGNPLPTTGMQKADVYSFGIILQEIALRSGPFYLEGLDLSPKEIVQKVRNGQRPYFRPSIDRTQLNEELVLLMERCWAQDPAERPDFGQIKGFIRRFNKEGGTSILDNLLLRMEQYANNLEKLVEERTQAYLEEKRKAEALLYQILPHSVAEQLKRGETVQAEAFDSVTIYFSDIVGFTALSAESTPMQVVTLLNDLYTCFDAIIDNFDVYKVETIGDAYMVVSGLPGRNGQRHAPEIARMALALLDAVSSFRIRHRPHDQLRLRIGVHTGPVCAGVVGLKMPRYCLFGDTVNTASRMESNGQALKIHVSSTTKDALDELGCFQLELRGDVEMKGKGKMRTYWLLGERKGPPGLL
T2 sequence (P23582 105-126 limits assumed, chain 2 of 2): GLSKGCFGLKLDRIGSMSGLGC
Experimental: HEK NPRA cells are detached with Accutase (PAA Laboratories GmbH, Cat. No. L11-007, Austria), harvested by centrifugation (900 rpm, 4 minutes) and resuspended in FACS buffer (PBS/3% FCS/0.02% NaN3) to a final concentration of 10⁶ cells/ml. 100 μl of the cell suspension is transferred to each well of a 96 round bottom plate (TC Microwell 96U, Nunc). […] Cells are washed in 150 μl of FACS buffer, pelleted and resuspended in 50 μl of the solution containing the primary antibody comprising a BEL extract of Fabs, a diluted BEL extract or purified antibody diluted in FACS buffer and incubated on ice for 30 min. Cells are washed again in FACS buffer and resuspended in 50 μl of FACS buffer containing the secondary antibody (R-Phycoerythrin-conjugated Affipure F(ab′)₂ Fragment Goat Anti-Human IgG, Dianova) and incubated on ice for 45 min. Cells are washed twice with FACS buffer and resuspended in 200 μl of FACS buffer for analysis in the FACS Array (BD Biosciences).

[3] = target: T3, rat NPRA on HEK cells bound to ANP (rat, UniProt P18910 29-1057; P01161 123-150); assay: KinExA whole cell binding (Kd,app), HEK cells with rat NPRA, ANP bound
T3 construct: whole, on cells;mature; also called HEK293T-GCA
T3 sequence (looked up): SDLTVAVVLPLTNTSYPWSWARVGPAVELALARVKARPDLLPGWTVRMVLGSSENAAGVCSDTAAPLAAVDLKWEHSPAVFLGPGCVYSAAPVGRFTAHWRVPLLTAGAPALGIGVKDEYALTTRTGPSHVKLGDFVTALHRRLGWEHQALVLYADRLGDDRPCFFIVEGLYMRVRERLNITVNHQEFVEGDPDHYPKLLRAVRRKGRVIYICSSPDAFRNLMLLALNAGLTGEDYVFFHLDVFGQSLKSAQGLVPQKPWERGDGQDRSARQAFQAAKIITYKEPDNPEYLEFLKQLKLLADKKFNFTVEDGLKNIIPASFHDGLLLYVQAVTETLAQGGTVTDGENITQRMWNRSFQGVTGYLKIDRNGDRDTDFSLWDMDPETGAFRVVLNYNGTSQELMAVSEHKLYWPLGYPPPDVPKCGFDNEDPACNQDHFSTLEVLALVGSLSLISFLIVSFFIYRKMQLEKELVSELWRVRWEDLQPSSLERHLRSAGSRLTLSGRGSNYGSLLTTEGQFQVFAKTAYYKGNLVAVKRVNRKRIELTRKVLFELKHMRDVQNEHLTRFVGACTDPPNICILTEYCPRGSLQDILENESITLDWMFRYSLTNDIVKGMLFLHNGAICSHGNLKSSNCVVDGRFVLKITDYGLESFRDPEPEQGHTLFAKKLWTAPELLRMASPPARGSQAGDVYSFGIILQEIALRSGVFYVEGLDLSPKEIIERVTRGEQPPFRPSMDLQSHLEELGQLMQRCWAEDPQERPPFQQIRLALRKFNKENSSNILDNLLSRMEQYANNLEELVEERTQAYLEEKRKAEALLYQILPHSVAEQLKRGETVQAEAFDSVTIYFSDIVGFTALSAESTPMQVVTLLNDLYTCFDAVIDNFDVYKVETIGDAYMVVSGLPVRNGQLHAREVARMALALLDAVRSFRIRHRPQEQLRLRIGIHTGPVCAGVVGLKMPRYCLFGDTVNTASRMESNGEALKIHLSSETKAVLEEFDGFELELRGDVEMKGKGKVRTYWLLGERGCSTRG
T3 sequence (peptide, looked up): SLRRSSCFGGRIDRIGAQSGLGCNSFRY

[4] = target: T3, rat NPRA on HEK cells bound to ANP; assay: cell-based or functional assay

Row | Binder | binding result [1] | binding result [2] | Kd [3] [nM] | Fold shift in EC50 of ANP (cGMP), HEK cells with rat NPRA [4] [fold]
1 | B1 | no binding (tested: 20 nM) | no binding (tested: 20 nM) |  | 
2 | B2 |  |  | 0.013 | 3

Reference: patent publication US20160168251A1 (MorphoSys, published 2016)
